B1: stem-loop dsDNA with 4-nt 3'-overhang (structured_DNA)
DNA: CTCTATAGAGTTTTCTCTATAGAGTTCT
B2: poly(dC12) (ssDNA)
DNA: CCCCCCCCCCCC
B3: poly(dA12) (ssDNA)
DNA: AAAAAAAAAAAA
B4: poly(dT12) (ssDNA)
DNA: TTTTTTTTTTTT

Key:
Gh-TDH wild-type [1] = target: T1, Gh-TDH wild-type (Grimontia hollisae, UniProt A0A377HK12 25-189); assay: BLI; 50 mM EDTA; conditions: protein: recombinant, chain copies: 4, label: 5'-biotin
Gh-TDH wild-type [2] = target: T1, Gh-TDH wild-type; assay: BLI; 50 mM EDTA; BLI: PBS pH 7.4, 50 mM EDTA, 1 mg/mL BSA, 1000 rpm, temperature not stated; crystals: protein:ssDNA 1:1.3, hanging drop, 20 C; conditions: protein: recombinant; chain copies: 4; label: 5'-biotin

Row | Binder | Kd (Gh-TDH wild-type [1]) | further results
1 | B1 |  | Kd (Gh-TDH wild-type [1]; hairpin, 3' overhang 4 nt): 14.8 µM
2 | B2 | ~3.08 µM | 
3 | B3 |  | Kd (Gh-TDH wild-type [2]): ~3.08 µM
4 | B4 | ~3.08 µM | 

— PMC13335484
